Data as given in the supplement of paper PMC6757056.
± gives the standard deviation of the averaged measurements.

B1: library; a variant is named by its letters at N, in order (parent)
chain: GCUGUCACCGGUGUAUUACCCUAGUGGUCGACCGGUCUGAUGAGUCUNNNNNNAGACGAAACAGC

How the values were obtained:
[1] = variants of: B1; assay: normalized RNA/DNA level with ligand (relative to sTRSVctl = 100) (log10 (% of sTRSVctl)); ligand: hypoxanthine (xanthine aptamer); higher = less ribozyme self-cleavage, higher mRNA level; details: ligand concentration (+) RNA-Seq: 5 mM, HEK293T, reporter: mCherry (pCS4076), ligand present: yes
Summary of the method: (§1)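 HEK293T cells received ligand, where used, 1 h before being transfected with 4 µg per 6-well well of library plasmids encoding reporter-linked ribozyme switches. After 72 h, RNA was extracted with EDTA and sequenced. RNA level was derived from RNA reads per DNA read, normalized to a spiked-in non-cleaving sequence or the top sequences, then scaled and log-transformed. Values were ×100 then log10, the top set was 25 sequences, and the minimum was 100 DNA reads.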

[2] = variants of: B1; assay: normalized RNA/DNA level without ligand (relative to sTRSVctl = 100) (log10 (% of sTRSVctl)); ligand: hypoxanthine (xanthine aptamer); higher = less ribozyme self-cleavage, higher mRNA level; details: HEK293T, reporter: mCherry (pCS4076), ligand present: no
Summary of the method: as §1

| Variant | normalized RNA/DNA level with ligand (log10) [1] | normalized RNA/DNA level without ligand (log10) [2] |
| --- | --- | --- |
| GCUGUCACCGGUGUAUUACCCUAGUGGUCGACCGGUCUGAUGAGUCUCGCCGCAGACGAAACAGC [CGCCGC] | 1.97 ± 0.063 | 1.923 ± 0.0072 |
| GCUGUCACCGGUGUAUUACCCUAGUGGUCGACCGGUCUGAUGAGUCUCGCCGUAGACGAAACAGC [CGCCGU] | 1.986 ± 0.014 | 2 ± 0.043 |
| GCUGUCACCGGUGUAUUACCCUAGUGGUCGACCGGUCUGAUGAGUCUCGCCGGAGACGAAACAGC [CGCCGG] | 1.913 ± 0.0023 | 1.61 ± 0.065 |
| GCUGUCACCGGUGUAUUACCCUAGUGGUCGACCGGUCUGAUGAGUCUCGCCGAAGACGAAACAGC [CGCCGA] | 2.04 ± 0.052 | 1.89 ± 0.042 |
| GCUGUCACCGGUGUAUUACCCUAGUGGUCGACCGGUCUGAUGAGUCUAGCCGCAGACGAAACAGC [AGCCGC] | 1.9 ± 0.096 | 1.84 ± 0.0076 |
| GCUGUCACCGGUGUAUUACCCUAGUGGUCGACCGGUCUGAUGAGUCUCGCCCUAGACGAAACAGC [CGCCCU] | 2.077 ± 0.0049 | 1.952 ± 0.014 |
| GCUGUCACCGGUGUAUUACCCUAGUGGUCGACCGGUCUGAUGAGUCUCGCCCGAGACGAAACAGC [CGCCCG] | 1.958 ± 0.0098 | 1.915 ± 0.005 |
| GCUGUCACCGGUGUAUUACCCUAGUGGUCGACCGGUCUGAUGAGUCUUGCCGCAGACGAAACAGC [UGCCGC] | 2.01 ± 0.032 | 1.927 ± 0.014 |
| GCUGUCACCGGUGUAUUACCCUAGUGGUCGACCGGUCUGAUGAGUCUUGCCGAAGACGAAACAGC [UGCCGA] | 1.94 ± 0.024 | 1.678 ± 0.014 |
| GCUGUCACCGGUGUAUUACCCUAGUGGUCGACCGGUCUGAUGAGUCUUGCCGUAGACGAAACAGC [UGCCGU] | 1.9 ± 0.027 | 1.74 ± 0.026 |
| GCUGUCACCGGUGUAUUACCCUAGUGGUCGACCGGUCUGAUGAGUCUUGCCCCAGACGAAACAGC [UGCCCC] | 2.011 ± 0.0086 | 1.9 ± 0.024 |
| GCUGUCACCGGUGUAUUACCCUAGUGGUCGACCGGUCUGAUGAGUCUUGCCCGAGACGAAACAGC [UGCCCG] | 1.9 ± 0.037 | 1.831 ± 0.014 |
| GCUGUCACCGGUGUAUUACCCUAGUGGUCGACCGGUCUGAUGAGUCUUGCCCUAGACGAAACAGC [UGCCCU] | 2.003 ± 0.013 | 1.94 ± 0.028 |
| GCUGUCACCGGUGUAUUACCCUAGUGGUCGACCGGUCUGAUGAGUCUGGCCCUAGACGAAACAGC [GGCCCU] | 2.037 ± 0.02 | 2 ± 0.034 |
| GCUGUCACCGGUGUAUUACCCUAGUGGUCGACCGGUCUGAUGAGUCUGGCCCCAGACGAAACAGC [GGCCCC] | 1.95 ± 0.12 | 1.97 ± 0.021 |
| GCUGUCACCGGUGUAUUACCCUAGUGGUCGACCGGUCUGAUGAGUCUGGCCCGAGACGAAACAGC [GGCCCG] | 1.974 ± 0.011 | 1.88 ± 0.03 |
| GCUGUCACCGGUGUAUUACCCUAGUGGUCGACCGGUCUGAUGAGUCUGGCCGGAGACGAAACAGC [GGCCGG] | 1.95 ± 0.039 | 1.84 ± 0.026 |
| GCUGUCACCGGUGUAUUACCCUAGUGGUCGACCGGUCUGAUGAGUCUGGCCGAAGACGAAACAGC [GGCCGA] | 1.98 ± 0.038 | 1.854 ± 0.014 |
| GCUGUCACCGGUGUAUUACCCUAGUGGUCGACCGGUCUGAUGAGUCUGGCCGCAGACGAAACAGC [GGCCGC] | 1.879 ± 0.014 | 1.7 ± 0.06 |
| GCUGUCACCGGUGUAUUACCCUAGUGGUCGACCGGUCUGAUGAGUCUAGCCCUAGACGAAACAGC [AGCCCU] | 1.94 ± 0.03 | 1.932 ± 0.013 |
| GCUGUCACCGGUGUAUUACCCUAGUGGUCGACCGGUCUGAUGAGUCUAGCCCCAGACGAAACAGC [AGCCCC] | 1.963 ± 0.015 | 1.91 ± 0.089 |
